From patent US20230416394A1 (ELPISCIENCE SUZHOU BIOPHARMA, published 2023)
Numbering of substitutions follows the chain as printed. One block for each binder: values may come before it.

What was measured:
[1] = molecular target: T1, 6×His tagged human CD39 (human); assay: Biacore, antibody captured, 6×His human CD39 as analyte, 1:1 model
T1 chain: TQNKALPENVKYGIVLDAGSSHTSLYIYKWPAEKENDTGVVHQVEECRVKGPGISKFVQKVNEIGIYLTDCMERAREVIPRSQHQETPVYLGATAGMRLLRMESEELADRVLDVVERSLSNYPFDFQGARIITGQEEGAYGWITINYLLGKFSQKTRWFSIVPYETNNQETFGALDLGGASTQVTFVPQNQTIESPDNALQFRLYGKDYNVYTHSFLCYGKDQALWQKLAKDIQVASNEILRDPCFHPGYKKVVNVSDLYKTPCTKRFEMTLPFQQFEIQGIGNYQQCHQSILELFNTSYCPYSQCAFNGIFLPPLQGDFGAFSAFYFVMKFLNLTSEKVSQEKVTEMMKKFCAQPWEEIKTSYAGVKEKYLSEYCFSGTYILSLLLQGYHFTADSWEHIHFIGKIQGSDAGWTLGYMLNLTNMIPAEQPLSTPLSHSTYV
Experimental: In particular, humanized antibodies hu23.H5L5, hu23.201, hu14.H1L1 and reference antibodies I394 and T895 were characterized for binding affinity against human CD39 using Biacore (GE). Briefly the antibodies to be tested were captured to […] (GE) using Human Antibody Capture Kit (GE). The antigen of 6×His tagged human CD39 was serially diluted for multiple doses and injected at 30 μl/min for 180 s. Buffer flow was maintained for dissociation of 400 s. 3 M MgCl₂ was used for chip regeneration. The association and dissociation curves were fit with 1:1 binding model, and the Ka/Kd/KD values for each antibody were calculated.

[2] = molecular target: T2, human CD39 (human, UniProt P49961 1-510); assay: FACS, MOLP-8 cells
T2 construct: full length human CD39 (NP_001767.3) on transfected CHOK1 cells, or native on SK-MEL-5, SK-MEL-28 and MOLP-8 cells; also called hCD39; ENTPD1
T2 sequence: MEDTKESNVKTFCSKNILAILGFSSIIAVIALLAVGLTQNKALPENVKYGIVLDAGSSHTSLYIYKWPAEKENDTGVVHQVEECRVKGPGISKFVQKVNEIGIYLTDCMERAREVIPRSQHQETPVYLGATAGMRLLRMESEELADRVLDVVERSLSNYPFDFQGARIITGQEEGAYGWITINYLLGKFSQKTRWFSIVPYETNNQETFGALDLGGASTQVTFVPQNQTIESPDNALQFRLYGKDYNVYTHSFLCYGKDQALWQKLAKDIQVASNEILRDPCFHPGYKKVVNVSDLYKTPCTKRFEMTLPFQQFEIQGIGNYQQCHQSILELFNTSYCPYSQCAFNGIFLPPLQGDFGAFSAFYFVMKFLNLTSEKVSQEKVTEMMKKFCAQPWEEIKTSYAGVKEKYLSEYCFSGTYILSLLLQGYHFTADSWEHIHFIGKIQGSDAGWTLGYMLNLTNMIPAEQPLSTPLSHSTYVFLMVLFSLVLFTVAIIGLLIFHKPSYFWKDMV

[3] = molecular target: T2, human CD39; assay: FACS, SK-MEL-5 cells
[4] = molecular target: T2, human CD39; assay: FACS, SK-MEL-28 cells
[5] = molecular target: T2, human CD39; assay: cell-based or functional assay
[6] = molecular target: T3, cynomolgus CD39 (cynomolgus monkey, UniProt A0A7N9DGH8 1-510); assay: FACS, CHO-K1/cynoCD39 cells
T3 construct: whole, on cells; also called cyno CD39; CHOK1-cynoCD39
T3 sequence: T2 sequence with V47I, F94Y, V221I, I230T, I329V, K368N, A391S, F489V, T490I

[7] = molecular target: T4, mouse CD39 (mouse, UniProt P55772 1-510); assay: FACS, CHOK1-mCD39 cells
T4 construct: whole, on cells; also called mCD39; CHOK1-mCD39
T4 sequence (looked up): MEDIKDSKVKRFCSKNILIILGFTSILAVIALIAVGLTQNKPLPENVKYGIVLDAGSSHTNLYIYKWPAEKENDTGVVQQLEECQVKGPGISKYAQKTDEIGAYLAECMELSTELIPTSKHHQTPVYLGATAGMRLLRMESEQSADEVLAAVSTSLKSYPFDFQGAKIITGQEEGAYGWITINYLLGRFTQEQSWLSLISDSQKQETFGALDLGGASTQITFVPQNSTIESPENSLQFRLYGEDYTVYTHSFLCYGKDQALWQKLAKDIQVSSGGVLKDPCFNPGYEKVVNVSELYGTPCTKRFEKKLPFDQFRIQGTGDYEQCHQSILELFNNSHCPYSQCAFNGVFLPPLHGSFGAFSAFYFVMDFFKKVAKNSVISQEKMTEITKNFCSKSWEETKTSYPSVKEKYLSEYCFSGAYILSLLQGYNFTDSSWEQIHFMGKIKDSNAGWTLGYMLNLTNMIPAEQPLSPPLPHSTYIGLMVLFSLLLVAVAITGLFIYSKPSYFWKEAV
Excerpt: FACS were used to determine binding of the antibodies to cell lines expressing CD39 naturally (SK-MEL-28) or recombinantly (CHOK1-hCD39, CHOK1-cynoCD39, and CHOK1-mCD39), or with cells lacking CD39 expression (CHOK1-blank) as a negative control.
CHOK1-hCD39, CHOK1-cCD39, CHOK1-mCD39 and CHOK1-blank cells were maintained in culture medium according to ATCC procedure. Cells were collected and re-suspended in blocking buffer at a density of 3×10⁶ cells/ml. […] The plates were washed with FACS buffer, and cells were re-suspended in 100 μL/well of PBS. Cells were then analyzed with FACSVerse™ and mean fluorescence intensity were determined. Full binding curves were generated on the CD39 expressing cells by testing a range of antibody concentrations. Apparent affinity was determined for each antibody using Prism software.

[8] = molecular target: T2, human CD39; assay: FACS, MOLP-8 cells; remark: listed apart in the source
[9] = molecular target: T2, human CD39; assay: cell-based or functional assay; remark: listed apart in the source
[10] = molecular target: T2, human CD39; assay: FACS, MOLP-8 cells, second set

B1: hu14.H1L1 (antibody, V domains shown)
VH: EVQLVESGGGLVKPGGSLRLSCAASGFTFSKYWMNWVRQAPGKGLEWVGEIRLKSNKYGTHYAESVKGRFTISRDDSKNTLYLQMNSLKTEDTAVYYCTTQLDLYWFFDVWGQGTTVTVSS
VL: EIVLTQSPATLSLSPGERATLSCRASQSISDYLHWYQQKPGQAPRLLIYYASQSISGIPARFSGSGSGTDFTLTISSLEPEDFAVYYCQNGHSLPLTFGGGTKLEIK
Kd [1]: 5.03 nM
koff [1]: 0.00455 s⁻¹
kon [1]: 903000 M⁻¹ s⁻¹

B2: I394 (antibody, V domains shown)
VH: QVQLVQSGAEVKKPGASVKVSCKASGYTFKSYEMHWVRQAPGQGLEWMGRINPSVGSTWYAQKFQGRVTMTRDTSTSTVYMELSSLRSEDTAVYYCARGKREGGTEYLRKWGQGTLVTVSS
VL: EIVLTQSPGTLSLSPGERATLSCRASQSVASSYLAWYQQKPGQAPRLLIYGASNRHTGIPDRFSGSGSGTDFTLTISRLEPEDFAVYYCQQYHNAITFGGGTKVEIK
EC50 [2]: 0.11 nM
EC50 [3]: 0.49 nM
EC50 [4]: 0.94 nM
ATPase activity inhibition (IC50), MOLP-8 cells [5]: 0.21 nM
ATPase activity inhibition (IC50), SK-MEL-5 cells [5]: 0.1 nM
EC50 [6]: 2.71 nM

B5: hu23.H3L1 (antibody, V domains shown)
VH: QVQLVQSGAEVKKPGASVKLSCKASGYNLKDTFLHWVRQAPGQGLEWIGRIDPANGNIKYDPKFQGRATITADTSASTAYMELSSLRSEDTAVYYCANSPYYYGSGYRIFDVWGQGTTVTVSS
VL: EIVLTQSPATLSLSPGERATLSCSAFSSVNYMHWYQQKPGQAPRLLIYTTSNLASGIPARFSGSGSGTDFTLTISSLEPEDFAVYYCQQRSTYPFTFGQGTKLEIK
EC50 [8]: ~15.4 nM

B7: hu23.H1L1 (antibody, V domains shown)
VH: B5 VH with L20V, G44R, I48M, A68V, A72R, N98R
VL: B5 VL
EC50 [10]: ~78.2 nM

B8: T895 (antibody, V domains shown)
VH: EVQLQQSGPELVKPGASVKMSCKASGYTFTDYNMHWVKQSHGRTLEWIGYIVPLNGGSTFNQKFKGRATLTVNTSSRTAYMELRSLTSEDSAAYYCARGGTRFAYWGQGTLVTVSA
VL: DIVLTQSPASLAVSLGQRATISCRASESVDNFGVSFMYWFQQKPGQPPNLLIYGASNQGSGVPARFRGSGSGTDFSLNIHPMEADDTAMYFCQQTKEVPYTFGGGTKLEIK
ATPase activity inhibition (IC50), MOLP-8 cells [5]: 0.51 nM
ATPase activity inhibition (IC50), SK-MEL-5 cells [5]: 0.09 nM

More lines, now with the values ahead:

binding result [7]: no binding (tested: 30 µg/ml)
B3: mAb35 (antibody, V domains shown)
VH: EVRLQQSGAELVKPGASVKLSCTASGFNIEDTYVHWMKQRPEQGLEWIGRIDPAIDNSKYDPKFQGKATITAVSSSNTAYLQLSSLTSEDTAVYYCALYDGYNVYAMDYWGQGTSVTVSS
VL: DIVMTQAAFSNPVTLGTSASISCRSSKNLLHSNGITYLYWYLQRPGQSPQLLIYRASTLASGVPNRFSGSESGTDFTLRISRVEAEDVGVYYCAQLLELPHTFGGGTKLEIK
notes: mouse hybridoma antibody

binding result [7]: no binding (tested: 30 µg/ml)
B4: mAb34 (antibody, V domains shown)
VH: EIQVQQSGPELVKPGASVKVSCKASGYSFTDYNMYWVKQSHGKSLEWIGFIDPYNGYTSYNQKFKGKATLTIDKSSSTAFMHLNSLTSEDSAVYYCAIYGYDDAYYFDYWGQGTTLTVSS
VL: QIVLTQSPAIMSASPGEKVTITCSATSSVSYMHWFRQKPGTSPKLWIYSTSNLASGVPARFSGSGSGTSYSLTISRMAAEDAATYYCQQRITYPFTFGSGTKLEIT
notes: mouse hybridoma antibody

ATPase inhibition on SK-MEL-28 cells, IC50 [9]: 0.122 nM
ATPase activity inhibition (IC50), MOLP-8 cells [5]: 0.33 nM
ATPase activity inhibition (IC50), SK-MEL-5 cells [5]: 0.07 nM
B6: hu23.H5L5 (antibody, V domains shown)
VH: B5 VH with L20V, I48M, A68V, S77N, S84I
VL: B5 VL with E1Q, A59T, D69S, F70Y
